Laboratory results from publication doi:10.1101/2022.05.11.491581 (bioRxiv, 2022).

B1: LARGE1 with its coiled-coil (+CC) domain (residues 29-756), soluble secreted form (domain or fragment, human, UniProt O95461 29-756, looked up)
chain: LFSGSFEDGKPVSLSPLESQAHSPRYTASSQRERESLEVRMREVEEENRALRRQLSLAQGRAPSHRRGNHSKTYSMEEGTGDSENLRAGIVAGNSSECGQQPVVEKCETIHVAIVCAGYNASRDVVTLVKSVLFHRRNPLHFHLIADSIAEQILATLFQTWMVPAVRVDFYNADELKSEVSWIPNKHYSGIYGLMKLVLTKTLPANLERVIVLDTDITFATDIAELWAVFHKFKGQQVLGLVENQSDWYLGNLWKNHRPWPALGRGYNTGVILLLLDKLRKMKWEQMWRLTAERELMGMLSTSLADQDIFNAVIKQNPFLVYQLPCFWNVQLSDHTRSEQCYRDVSDLKVIHWNSPKKLRVKNKHVEFFRNLYLTFLEYDGNLLRRELFGCPSEADVNSENLQKQLSELDEDDLCYEFRRERFTVHRTHLYFLHYEYEPAADSTDVTLVAQLSMDRLQMLEAICKHWEGPISLALYLSDAEAQQFLRYAQGSEVLMSRHNVGYHIVYKEGQFYPVNLLRNVAMKHISTPYMFLSDIDFLPMYGLYEYLRKSVIQLDLANTKKAMIVPAFETLRYRLSFPKSKAELLSMLDMGTLFTFRYHVWTKGHAPTNFAKWRTATTPYRVEWEADFEPYVVVRRDCPEYDRRFVGFGWNKVAHIMELDVQEYEFIVLPNAYMIHMPHAPSFDITKFRSNKQYRICLKTLKEEFQQDMSRRYGFAALKYLTAENNS

How the values were obtained:
[1] = biological target: LARGE1 without its CC domain (-CC), soluble secreted form (human) (UniProt O95461); assay: mass photometry
[2] = biological target: LARGE1 without its CC domain (-CC), soluble secreted form (human) (UniProt O95461); assay: cryo-EM structure
[3] = biological target: LARGE1 without its CC domain (-CC), soluble secreted form (human) (UniProt O95461); assay: crystal structure
mass photometry = biological target: the molecule itself; assay: mass photometry

Molecule	stoichiometry N [1]	stoichiometry N [2]	stoichiometry N [3]	stoichiometry N (mass photometry)
LARGE1 without its CC domain (-CC), soluble secreted form (from UniProt O95461 96-276) (domain or fragment)	2	2	2	–
B1	–	–	–	2
